Measurements taken from US20110014193A1 (JURIDICAL FDN THE CHEMO SERO THERAPEUTIC RES INST, published 2011).
Like-named read-outs stand apart in the source and are kept apart here.

What was measured:
Experiment in all cases: cell-based or functional assay
[1] = target: T1, human α9 integrin molecule (human, UniProt Q13797 30-1035; P05556 21-798)
[2] = target: T1, human α9 integrin molecule; remark: listed apart in the source
[3] = target: T1, human α9 integrin molecule; remark: listed apart in the source
[4] = target: T1, human α9 integrin molecule; remark: listed apart in the source
[5] = target: T1, human α9 integrin molecule; remark: listed apart in the source
[6] = target: T1, human α9 integrin molecule; remark: listed apart in the source
[7] = target: T1, human α9 integrin molecule; remark: listed apart in the source
[8] = target: T1, human α9 integrin molecule; remark: listed apart in the source
[9] = target: T1, human α9 integrin molecule; remark: listed apart in the source

T1 sequence (Q13797 30-1035 limits assumed, chain 1 of 2): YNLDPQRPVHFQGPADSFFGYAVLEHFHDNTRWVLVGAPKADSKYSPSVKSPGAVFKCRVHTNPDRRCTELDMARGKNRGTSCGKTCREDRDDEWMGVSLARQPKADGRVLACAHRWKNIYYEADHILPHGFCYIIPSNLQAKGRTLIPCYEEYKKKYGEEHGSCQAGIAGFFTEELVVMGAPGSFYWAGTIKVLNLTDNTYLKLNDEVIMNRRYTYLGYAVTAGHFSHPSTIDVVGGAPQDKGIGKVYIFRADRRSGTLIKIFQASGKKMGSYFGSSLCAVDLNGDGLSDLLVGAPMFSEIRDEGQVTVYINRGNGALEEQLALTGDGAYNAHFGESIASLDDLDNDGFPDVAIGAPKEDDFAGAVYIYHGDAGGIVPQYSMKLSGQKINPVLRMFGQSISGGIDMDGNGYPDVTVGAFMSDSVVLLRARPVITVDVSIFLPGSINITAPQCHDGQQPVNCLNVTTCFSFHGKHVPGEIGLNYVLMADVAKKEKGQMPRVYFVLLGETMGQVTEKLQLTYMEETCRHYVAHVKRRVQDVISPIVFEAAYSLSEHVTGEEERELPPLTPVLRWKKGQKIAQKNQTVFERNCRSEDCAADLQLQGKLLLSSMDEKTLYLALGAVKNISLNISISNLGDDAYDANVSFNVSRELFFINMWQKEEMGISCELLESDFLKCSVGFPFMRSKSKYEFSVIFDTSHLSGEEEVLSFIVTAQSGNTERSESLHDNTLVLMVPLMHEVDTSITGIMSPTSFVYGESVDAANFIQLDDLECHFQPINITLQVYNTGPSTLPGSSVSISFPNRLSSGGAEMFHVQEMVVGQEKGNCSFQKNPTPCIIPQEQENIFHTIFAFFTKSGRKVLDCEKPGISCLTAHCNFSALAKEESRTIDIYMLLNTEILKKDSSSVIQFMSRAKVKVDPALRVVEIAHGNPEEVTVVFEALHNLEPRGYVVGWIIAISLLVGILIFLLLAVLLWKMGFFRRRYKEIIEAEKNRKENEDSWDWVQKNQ
T1 sequence (P05556 21-798 limits assumed, chain 2 of 2): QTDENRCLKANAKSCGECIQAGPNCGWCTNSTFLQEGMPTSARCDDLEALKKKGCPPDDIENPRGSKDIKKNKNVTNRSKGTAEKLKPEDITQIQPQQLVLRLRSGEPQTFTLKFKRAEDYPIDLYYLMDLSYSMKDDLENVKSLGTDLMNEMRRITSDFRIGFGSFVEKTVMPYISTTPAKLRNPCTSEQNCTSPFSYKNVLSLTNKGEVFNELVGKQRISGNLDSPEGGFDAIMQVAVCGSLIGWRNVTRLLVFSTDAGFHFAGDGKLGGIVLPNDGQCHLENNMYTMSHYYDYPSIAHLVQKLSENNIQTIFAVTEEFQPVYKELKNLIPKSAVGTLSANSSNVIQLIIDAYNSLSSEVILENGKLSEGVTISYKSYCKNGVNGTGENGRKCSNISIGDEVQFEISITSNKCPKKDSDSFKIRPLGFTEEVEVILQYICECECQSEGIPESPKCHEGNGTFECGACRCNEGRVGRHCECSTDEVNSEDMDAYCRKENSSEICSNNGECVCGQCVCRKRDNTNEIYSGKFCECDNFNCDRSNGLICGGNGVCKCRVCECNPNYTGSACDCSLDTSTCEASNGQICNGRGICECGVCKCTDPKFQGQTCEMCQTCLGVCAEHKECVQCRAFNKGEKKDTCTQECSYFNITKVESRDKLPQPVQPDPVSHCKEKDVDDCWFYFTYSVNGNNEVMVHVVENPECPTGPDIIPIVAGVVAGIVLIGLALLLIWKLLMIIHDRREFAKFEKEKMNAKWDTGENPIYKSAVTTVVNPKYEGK

B1: RY9A2v501 antibody (antibody, V domains shown)
VH: QVQLVQSGAEVKKPGSSVKMSCKASGYTLTTYWMHWVKQRPGQGLEWIGYINPSSGYTEYNQKFKDRVTITADKSTSTAYMELSSLRSEDTAVYYCAIYGDYGDFYFDYWGQGTTVTVSS
VL: DIQMTQSPSSLSASVGDRVTITCKASQSVNTDVAWYQQKPGKAPKLLIYFASNHYTGVPSRFSGSGSGTDFTFTISSLQPEDIATYYCRQDYSSPFTFGGGTKVEIKR
IC50 (µg/mL), cell adhesion inhibition test, SW480/hα9 cells on nOPN-RAA [1]: 0.054 µg/mL

B2: RY9A2v5(WE)01 antibody (antibody, V domains shown)
VH: QVQLVQSGAEVKKPGSSVKMSCKASGYTLTTYWMHWVKQRPGQGLEWIGYINPSSGYTEYNQKFKDRVTITADKSTSTAYMELSSLRSEDTAVYYCAIYGDYGWEYFDYWGQGTTVTVSS
VL: DIQMTQSPSSLSASVGDRVTITCKASQSVNTDVAWYQQKPGKAPKLLIYFASNHYTGVPSRFSGSGSGTDFTFTISSLQPEDIATYYCRQDYSSPFTFGGGTKVEIKR
IC50 (µg/mL), cell adhesion inhibition test, SW480/hα9 cells on nOPN-RAA [2]: 0.022 µg/mL

B3: RY9A2v5(AL)01 antibody (antibody, V domains shown)
VH: QVQLVQSGAEVKKPGSSVKMSCKASGYTLTTYWMHWVKQRPGQGLEWIGYINPSSGYTEYNQKFKDRVTITADKSTSTAYMELSSLRSEDTAVYYCAIYGDYGALYFDYWGQGTTVTVSS
VL: DIQMTQSPSSLSASVGDRVTITCKASQSVNTDVAWYQQKPGKAPKLLIYFASNHYTGVPSRFSGSGSGTDFTFTISSLQPEDIATYYCRQDYSSPFTFGGGTKVEIKR
IC50 (µg/mL), cell adhesion inhibition test, SW480/hα9 cells on nOPN-RAA [2]: 0.032 µg/mL

B4: RY9A2v5(AW)01 antibody (antibody, V domains shown)
VH: QVQLVQSGAEVKKPGSSVKMSCKASGYTLTTYWMHWVKQRPGQGLEWIGYINPSSGYTEYNQKFKDRVTITADKSTSTAYMELSSLRSEDTAVYYCAIYGDYGAWYFDYWGQGTTVTVSS
VL: DIQMTQSPSSLSASVGDRVTITCKASQSVNTDVAWYQQKPGKAPKLLIYFASNHYTGVPSRFSGSGSGTDFTFTISSLQPEDIATYYCRQDYSSPFTFGGGTKVEIKR
IC50 (µg/mL), cell adhesion inhibition test, SW480/hα9 cells on nOPN-RAA [2]: 0.015 µg/mL

B5: RY9A2v11(M34L)012 antibody (antibody, human IgG1, kappa, V domains shown)
VH: QVQLVQSGAEVKKPGSSVKMSCKASGYTLTTYWLHWVKQRPGQGLEWIGYINPSSGYTEYNQKFQGRVTITADKSTSTAYMELSSLRSEDTAVYYCAIYGDYGDFYFDYWGQGTTVTVSS
VL: DIQMTQSPSSLSASVGDRVTITCRASQSVNTDVAWYQQKPGKAPKLLIYFASNHYTGVPSRFSGSGSGTDFTFTISSLQPEDIATYYCRQDYSSPFTFGGGTKVEIKR
specific activity (IC50 relative to mouse Y9A2 = 1), cell adhesion inhibition test on nOPN-RAA [3]: 0.23 ratio of IC50 to mouse Y9A2 | specific activity (IC50 relative to mouse Y9A2 = 1), cell adhesion inhibition test on human Tenascin C-RAA [4]: 0.35 ratio of IC50 to mouse Y9A2 | specific activity (IC50 relative to mouse Y9A2 = 1), cell adhesion inhibition test on human VCAM-1 [4]: 0.44 ratio of IC50 to mouse Y9A2 | inhibitory rate (%) of migration of SW480/hα9 cell against nOPN-RAA, antibody at 5 µg/mL [5]: 84%

B6: RY9A2v5(SW)01 antibody (antibody, V domains shown)
VH: QVQLVQSGAEVKKPGSSVKMSCKASGYTLTTYWMHWVKQRPGQGLEWIGYINPSSGYTEYNQKFKDRVTITADKSTSTAYMELSSLRSEDTAVYYCAIYGDYGSWYFDYWGQGTTVTVSS
VL: DIQMTQSPSSLSASVGDRVTITCKASQSVNTDVAWYQQKPGKAPKLLIYFASNHYTGVPSRFSGSGSGTDFTFTISSLQPEDIATYYCRQDYSSPFTFGGGTKVEIKR
IC50 (µg/mL), cell adhesion inhibition test, SW480/hα9 cells on nOPN-RAA [2]: 0.035 µg/mL

B7: RY9A2v5(M34I)01 antibody (antibody, V domains shown)
VH: QVQLVQSGAEVKKPGSSVKMSCKASGYTLTTYWIHWVKQRPGQGLEWIGYINPSSGYTEYNQKFKDRVTITADKSTSTAYMELSSLRSEDTAVYYCAIYGDYGDFYFDYWGQGTTVTVSS
VL: DIQMTQSPSSLSASVGDRVTITCKASQSVNTDVAWYQQKPGKAPKLLIYFASNHYTGVPSRFSGSGSGTDFTFTISSLQPEDIATYYCRQDYSSPFTFGGGTKVEIKR
IC50 (µg/mL), cell adhesion inhibition test, SW480/hα9 cells on nOPN-RAA [6]: 0.024 µg/mL

B8: RY9A2v5(M34L)01 antibody (antibody, V domains shown)
VH: QVQLVQSGAEVKKPGSSVKMSCKASGYTLTTYWLHWVKQRPGQGLEWIGYINPSSGYTEYNQKFKDRVTITADKSTSTAYMELSSLRSEDTAVYYCAIYGDYGDFYFDYWGQGTTVTVSS
VL: DIQMTQSPSSLSASVGDRVTITCKASQSVNTDVAWYQQKPGKAPKLLIYFASNHYTGVPSRFSGSGSGTDFTFTISSLQPEDIATYYCRQDYSSPFTFGGGTKVEIKR
IC50 (µg/mL), cell adhesion inhibition test, SW480/hα9 cells on nOPN-RAA [6]: 0.021 µg/mL

B9: RY9A2v11012 antibody (antibody, V domains shown)
VH: QVQLVQSGAEVKKPGSSVKMSCKASGYTLTTYWMHWVKQRPGQGLEWIGYINPSSGYTEYNQKFQGRVTITADKSTSTAYMELSSLRSEDTAVYYCAIYGDYGDFYFDYWGQGTTVTVSS
VL: DIQMTQSPSSLSASVGDRVTITCRASQSVNTDVAWYQQKPGKAPKLLIYFASNHYTGVPSRFSGSGSGTDFTFTISSLQPEDIATYYCRQDYSSPFTFGGGTKVEIKR
IC50 (µg/mL), cell adhesion inhibition test, SW480/hα9 cells on nOPN-RAA [7]: 0.008 µg/mL

B10: RY9A2v5(IAW)01 antibody (antibody, human IgG1, kappa, V domains shown)
VH: QVQLVQSGAEVKKPGSSVKMSCKASGYTLTTYWIHWVKQRPGQGLEWIGYINPSSGYTEYNQKFKDRVTITADKSTSTAYMELSSLRSEDTAVYYCAIYGDYGAWYFDYWGQGTTVTVSS
VL: DIQMTQSPSSLSASVGDRVTITCKASQSVNTDVAWYQQKPGKAPKLLIYFASNHYTGVPSRFSGSGSGTDFTFTISSLQPEDIATYYCRQDYSSPFTFGGGTKVEIKR
specific activity (IC50 relative to mouse Y9A2 = 1), cell adhesion inhibition test on nOPN-RAA [3]: 0.29 ratio of IC50 to mouse Y9A2 | specific activity (IC50 relative to mouse Y9A2 = 1), cell adhesion inhibition test on human Tenascin C-RAA [4]: 0.44 ratio of IC50 to mouse Y9A2 | specific activity (IC50 relative to mouse Y9A2 = 1), cell adhesion inhibition test on human VCAM-1 [4]: 1 ratio of IC50 to mouse Y9A2 | inhibitory rate (%) of migration of SW480/hα9 cell against nOPN-RAA, antibody at 5 µg/mL [5]: 109%

B11: RY9A2v801 antibody (antibody, V domains shown)
VH: QVQLVQSGAEVKKPGSSVKVSCKASGYTLTTYWMHWVRQAPGQGLEWMGYINPSSGYTEYNQKFKDRVTITADKSTSTAYMELSSLRSEDTAVYYCAIYGDYGDFYFDYWGQGTTVTVSS
VL: DIQMTQSPSSLSASVGDRVTITCKASQSVNTDVAWYQQKPGKAPKLLIYFASNHYTGVPSRFSGSGSGTDFTFTISSLQPEDIATYYCRQDYSSPFTFGGGTKVEIKR
IC50 (µg/mL), cell adhesion inhibition test, SW480/hα9 cells on nOPN-RAA [1]: 0.058 µg/mL

B12: RY9A2v12(M34L)012 antibody (antibody, human IgG1, kappa, V domains shown)
VH: QVQLVQSGAEVKKPGSSVKVSCKASGYTLTTYWLHWVRQAPGQGLEWMGYINPSSGYTEYNQKFQGRVTITADKSTSTAYMELSSLRSEDTAVYYCAIYGDYGDFYFDYWGQGTTVTVSS
VL: DIQMTQSPSSLSASVGDRVTITCRASQSVNTDVAWYQQKPGKAPKLLIYFASNHYTGVPSRFSGSGSGTDFTFTISSLQPEDIATYYCRQDYSSPFTFGGGTKVEIKR
specific activity (IC50 relative to mouse Y9A2 = 1), cell adhesion inhibition test on nOPN-RAA [3]: 0.23 ratio of IC50 to mouse Y9A2 | specific activity (IC50 relative to mouse Y9A2 = 1), cell adhesion inhibition test on human Tenascin C-RAA [4]: 0.26 ratio of IC50 to mouse Y9A2 | specific activity (IC50 relative to mouse Y9A2 = 1), cell adhesion inhibition test on human VCAM-1 [4]: 0.95 ratio of IC50 to mouse Y9A2 | inhibitory rate (%) of migration of SW480/hα9 cell against nOPN-RAA, antibody at 5 µg/mL [5]: 86%

B13: RY9A2v11011 antibody (antibody, V domains shown)
VH: QVQLVQSGAEVKKPGSSVKMSCKASGYTLTTYWMHWVKQRPGQGLEWIGYINPSSGYTEYNQKFQGRVTITADKSTSTAYMELSSLRSEDTAVYYCAIYGDYGDFYFDYWGQGTTVTVSS
VL: DIQMTQSPSSLSASVGDRVTITCQASQSVNTDVAWYQQKPGKAPKLLIYFASNHYTGVPSRFSGSGSGTDFTFTISSLQPEDIATYYCRQDYSSPFTFGGGTKVEIKR
IC50 (µg/mL), cell adhesion inhibition test, SW480/hα9 cells on nOPN-RAA [7]: 0.012 µg/mL

B14: mouse Y9A2 antibody (antibody, V domains shown)
VH: QVQLQQSGAELANPGASVKMSCKASGYTLTTYWMHWVKQRPGQGLEWIGYINPSSGYTEYNQKFKDKATLTADKSSSTAYMQLTSLTSEDSAVYYCAIYGDYGDFYFDYWGQGTTLTVSS
VL: SIVMTQTPKFLLVSAGDRVTMTCKASQSVNTDVAWFQQKPGQSPKLLIYFASNHYTGVPDRFTGSGYGTDFTFTISTVQAEDLAIYFCRQDYSSPFTFGGGTKLEIKR
average cell adhesion inhibitory activity IC50, SW480/hα9 cells on human Tenascin C-RAA [8]: 0.041 µg/mL | average cell adhesion inhibitory activity IC50, SW480/hα9 cells on human VCAM-1/Ig [8]: 0.077 µg/mL | average of IC50 values, cell adhesion inhibition test, SW480/hα9 cells on nOPN-RAA [8]: 0.039 µg/mL | IC50 (µg/mL), cell adhesion inhibition test, SW480/hα9 cells on nOPN-RAA [9]: 0.039 µg/mL | IC50 (µg/mL), cell adhesion inhibition test, SW480/hα9 cells on nOPN-RAA [1]: 0.07 µg/mL | IC50 (µg/mL), cell adhesion inhibition test, SW480/hα9 cells on nOPN-RAA [7]: 0.025 µg/mL | IC50 (µg/mL), cell adhesion inhibition test, SW480/hα9 cells on nOPN-RAA [6]: 0.049 µg/mL | IC50 (µg/mL), cell adhesion inhibition test, SW480/hα9 cells on nOPN-RAA; value in parentheses, measured simultaneously with RY9A2v5(AL)01 [2]: 0.052 µg/mL | IC50 (µg/mL), cell adhesion inhibition test, SW480/hα9 cells on nOPN-RAA; value in parentheses, measured simultaneously with RY9A2v5(AW)01 [2]: 0.037 µg/mL | IC50 (µg/mL), cell adhesion inhibition test, SW480/hα9 cells on nOPN-RAA; value in parentheses, measured simultaneously with RY9A2v5(SW)01 [2]: 0.052 µg/mL | IC50 (µg/mL), cell adhesion inhibition test, SW480/hα9 cells on nOPN-RAA; value in parentheses, measured simultaneously with RY9A2v5(WE)01 [2]: 0.052 µg/mL | specific activity (IC50 relative to mouse Y9A2 = 1), cell adhesion inhibition test on nOPN-RAA [3]: 1 ratio of IC50 to mouse Y9A2 | specific activity (IC50 relative to mouse Y9A2 = 1), cell adhesion inhibition test on human Tenascin C-RAA [4]: 1 ratio of IC50 to mouse Y9A2 | specific activity (IC50 relative to mouse Y9A2 = 1), cell adhesion inhibition test on human VCAM-1 [4]: 1 ratio of IC50 to mouse Y9A2 | inhibitory rate (%) of migration of SW480/hα9 cell against nOPN-RAA, antibody at 5 µg/mL [5]: 28%

B15: chimeric Y9A2 antibody (antibody, V domains shown)
VH: QVQLQQSGAELANPGASVKMSCKASGYTLTTYWMHWVKQRPGQGLEWIGYINPSSGYTEYNQKFKDKATLTADKSSSTAYMQLTSLTSEDSAVYYCAIYGDYGDFYFDYWGQGTTLTVSS
VL: SIVMTQTPKFLLVSAGDRVTMTCKASQSVNTDVAWFQQKPGQSPKLLIYFASNHYTGVPDRFTGSGYGTDFTFTISTVQAEDLAIYFCRQDYSSPFTFGGGTKLEIKR
IC50 (µg/mL), cell adhesion inhibition test, SW480/hα9 cells on nOPN-RAA [9]: 0.038 µg/mL
